Data set [1] is described as follows: In vivo imaging, kinetics of Ce6 fluorescence in mice. Also noted: species or system mouse. The protocol: (§1) For in vivo imaging, Ce6-GFFY (5 mg/kg) and Ce6 molecules (2.5 mg/kg) were injected into mice burdened with or without xenograft tumors through the tail vein (100 μL/mouse), and the fluorescence intensity of mice or main tissues such as brain, heart, liver, spleen, lung, kidney, intestine, and stomach was detected and analyzed with an IVIS spectrum imaging system (PerkinElmer, MA, USA). All animal experiments were approved by The Institutional Animal Care and Use Committee at Sun Yat-sen Cancer Center.

For data set [2], the system named is HCT116 cells. Description: ROS detection with DCFH-DA. It counts as cell-based, human. The conditions noted are these: HCT116, 5 μM, 1 h, 660 nm laser 1 min 0.02 W/cm^2, confocal laser scanning microscopy. The protocol: (§2) For cell endocytosis detection, CT26 and HCT116 cells were treated with Ce6 molecules (5 μM) or Ce6-GFFY (5 μM) at 37 °C for 1 h. For ROS detection, cells were treated with Ce6 molecules (5 μM), GFFY peptide (5 μM), or Ce6-GFFY (5 μM) at 37 °C for 1 h and then treated with or without laser irradiation for 1 min (660 nm, 0.02 W/cm^2). Afterward, the cells were collected and stained with DCFH-DA (1:5000) at 37 °C for 20 min. For cell death analysis, cells were treated with Ce6 molecules, GFFY peptide, or Ce6-GFFY (CT26, 10 μM; HCT116, 5 μM) at 37 °C for 1 h and then treated with or without laser irradiation for 1 min (660 nm, 0.02 W/cm^2). After incubation at 37 °C for 24 h, the cells were collected and stained with propidium iodide (1:100) and annexin V-FITC (1:200). For examination of CRT expression, cells were treated with Ce6 molecules, GFFY peptide, or Ce6-GFFY (CT26, 10 μM; HCT116, 5 μM) at 37 °C for 1 h and then treated with or without laser irradiation for 1 min (660 nm, 0.02 W/cm^2). After incubation at 37 °C for 8 h, the cells were collected and blocked with 5% bull serum albumin for 10 min and then incubated with a primary anti-calreticulin antibody (#ab92516, Abcam), followed by the incubation of an Alexa Fluor 488-conjugated secondary antibody (#406416, BioLegend). […]

For data set [3], the system named is CT26 cells. Description: ROS detection with DCFH-DA. It counts as cell-based, mouse. The conditions noted are these: CT26, 5 μM, 1 h, 660 nm laser 1 min 0.02 W/cm^2, confocal laser scanning microscopy. The method, then: as §2
The nature of data set [4]: Toxicity evaluation in mice (blood routine, liver and kidney function, H&E pathology). It counts as in vivo, mouse. The conditions noted are these: 5 mg/kg i.v. plus laser irradiation. From the text: Four-to-six-week-old BALB/c mice and BALB/c nude mice were purchased from Guangdong Medical Laboratory Animal Center (Guangzhou, China). All mice were maintained under standard conditions and treated according to institutional guidelines for animal care. For primary tumor therapy, 2 × 10^5 CT26 cells were suspended in a 1:1 mixture of PBS and matrigel and subcutaneously injected into the flanks of the mice. When the volume of tumors reached 70 mm^3, the mice were randomized into treatment and control groups. The treatment groups received tail intravenous injections of GFFY (2.5 mg/kg), Ce6 (2.5 mg/kg), or Ce6-GFFY (5 mg/kg), and the control group received PBS treatment, both groups were treated with once 660 nm laser irradiation for 8 min (1 min on, 1 min off; 4 cycles) on the tumor region at a power of 0.2 W/cm^2. Tumor volume and mouse body weight were recorded every three days, and tumor tissues were collected and weighed at the end of treatment. Main organs such as the heart, liver, spleen, lung, and kidney were collected for pathological analysis and the blood was collected for blood routine examination.

In data set [5] the test system is HCT116 cells. The data set is described as follows: CCK-8 assay. The data set is classed as cell-based, human. The conditions noted are these: drug 1 h, 660 nm laser 1 min at 0.02 W/cm^2, then 24 h at 37 °C, read-out: IC50 (proliferation). The method, then:
(§3) Cell viability was measured using a CCK-8 cell counting kit (Beyotime Biotechnology, Shanghai, China). 7000 cells were seeded in 96-well plates and treated with drugs at various concentrations for 1 h and then treated with or without laser irradiation for 1 min (660 nm, 0.02 W/cm^2), followed by incubation at 37 °C for 24 h. After the addition of the CCK-8 reagent, the cells were continually incubated at 37 °C for 3 h before being detected by a microplate reader (TECAN, Victoria, Austria).

For data set [6], the system named is CT26 cells. Description: Cell endocytosis (uptake) detection by Ce6 fluorescence. The data set is classed as cell-based, mouse. The conditions noted are these: CT26, 5 μM, 37 °C, 1 h. The method, then:
as §2

For data set [7], the system named is CT26 cells. Description: CCK-8 assay. It counts as cell-based, mouse. The conditions noted are these: drug 1 h, 660 nm laser 1 min at 0.02 W/cm^2, then 24 h at 37 °C, read-out: IC50 (proliferation). The protocol:
as §3
(In general: Formazan colour is commonly taken as a measure of viable cells.)

Data set [8] relates to HCT116 cells. The data set is described as follows: Cell endocytosis (uptake) detection by Ce6 fluorescence. The data set is classed as cell-based, human. The conditions noted are these: HCT116, 5 μM, 37 °C, 1 h. The method, then: as §2
The subject of another data set is CT26-derived tumors. Description: In vivo imaging, tumor targeting in mice bearing CT26-derived tumors. More on the design: species or system mouse. The conditions noted are these: tail vein, 5 mg/kg, n = 3. The method, then:
as §1

Setting [9] is: confocal laser scanning microscopy, versus Ce6 molecules.
Setting [10] is: flow cytometry, Ce6 fluorescence.

Structures are written as SMILES.

As to `C=Cc1c(C)c2cc3nc(c(CC(=O)O)c4[nH]c(cc5nc(cc1[nH]2)C(C)=C5CC)c(C)c4C(=O)O)[C@@H](CCC(=O)O)[C@@H]3C` [Ce6, chlorin e6], in data set [1] (mice, tail vein injection, 2.5 mg/kg, living imaging of Ce6 luminescence, n = 5), the “time after injection by which almost cleared” value was no more than 12 h. Besides, the half-life in mice in data set [1] (mice, tail vein injection, Ce6-GFFY 5 mg/kg, Ce6 2.5 mg/kg, from Ce6 luminescence changes, IVIS imaging, n = 5) is 3 h. For the same molecule, the “ROS production upon 660 nm laser irradiation” value in the data set on HCT116 cells [2] and in the data set on CT26 cells [3] was “minimal” each time.

In the case of `C=Cc1c(C)c2cc3nc(c(CC(=O)NCC(=O)N[C@@H](Cc4ccccc4)C(=O)N[C@@H](Cc4ccccc4)C(=O)N[C@@H](Cc4ccc(O)cc4)C(=O)O)c4[nH]c(cc5nc(cc1[nH]2)C(C)=C5CC)c(C)c4C(=O)O)[C@@H](CCC(=O)O)[C@@H]3C` [Ce6-GFFY], the “hepatic and renal function (AST, ALT, BUN)” value in [4] (end of treatment, n = 5) is “did not exert an impact on the hepatic and renal function”. Further, in data set [4] (end of treatment, n = 5), the “murine blood routine analysis (inflammatory responses)” value is on record as “did not elicit any significant inflammatory responses”. Also, the “histopathological analysis of heart, liver, spleen, lung, and kidney (H&E)” value in data set [4] (n = 4) is on record as “no apparent toxicity”. For the same molecule, the “retention time in the mice” value in [1] (mouse, in vivo, 5 mg/kg) was “over 48 h”. Also, the IC50 was found to be 5.3 µM in the data set on HCT116 cells [5] and 6.27 µM in the data set with CT26 cells [7]. Also, the “cellular Ce6 fluorescence” value in the data set with CT26 cells [6] (setting [9]) and with HCT116 cells [8] (setting [9]) was “noticeable aggregation of Ce6 fluorescence” each time. Besides, the “cellular uptake (Ce6 positive cells)” value with CT26 cells [6] (setting [10]) and with HCT116 cells [8] (setting [10]) was “much higher than Ce6 molecules” in each case. Moreover, the “accumulation in tumor regions after injection” value in the data set with CT26-derived tumors (living imaging) is listed as “accumulated rapidly in the tumor regions”. Further, the “distribution in tumor and normal tissues after 24 h” value in the data set on CT26-derived tumors (organs and tumors imaged at 24 h) is on record as “stable aggregation in tumor tissues”.

The values are drawn from publication PMC11697048, “Ce6-GFFY is a novel photosensitizer for colorectal cancer therapy” (Genes & Diseases, 2024).
